Results published in patent US20250019454A1 (BIOCYTOGEN PHARMACEUTICALS BEIJING, published 2025).
Positions count from the first letter of the chain named.

T1: His-tagged human TNFR1 (Human TNFR1/CD120a/TNFRSF1A Protein, His Tag, Acrobiosystems Cat #: TN1-5222) (human, UniProt P19438 30-211)
T1 construct: Bought protein; also called hTNFR1-His; hTNFR 1-His; not shown: His tag
T1 sequence (looked up): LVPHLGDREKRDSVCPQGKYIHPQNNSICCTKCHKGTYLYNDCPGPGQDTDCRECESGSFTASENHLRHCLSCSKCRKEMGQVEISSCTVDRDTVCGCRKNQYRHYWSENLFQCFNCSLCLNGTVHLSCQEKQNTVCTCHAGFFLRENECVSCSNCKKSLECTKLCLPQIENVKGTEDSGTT

T2: ΔCRD1-TNFR2 protein (with CRD1 deletion), on CHO-S cells (human, UniProt P20333 23-461)
T2 construct: also called CHO-SΔCRD1-TNFR2
T2 sequence: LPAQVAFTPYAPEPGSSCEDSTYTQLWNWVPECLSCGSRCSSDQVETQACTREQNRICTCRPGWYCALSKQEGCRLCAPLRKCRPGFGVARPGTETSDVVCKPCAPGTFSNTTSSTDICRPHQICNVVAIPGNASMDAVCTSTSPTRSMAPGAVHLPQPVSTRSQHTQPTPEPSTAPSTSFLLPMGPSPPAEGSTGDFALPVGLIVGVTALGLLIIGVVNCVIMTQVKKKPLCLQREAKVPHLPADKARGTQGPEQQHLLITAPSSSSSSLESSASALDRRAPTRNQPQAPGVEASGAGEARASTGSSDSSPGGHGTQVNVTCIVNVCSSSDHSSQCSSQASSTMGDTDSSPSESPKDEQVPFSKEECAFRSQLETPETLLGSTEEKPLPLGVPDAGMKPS

T3: ΔCRD4-TNFR2 protein (with CRD4 deletion), on CHO-S cells (human, UniProt P20333 23-461)
T3 construct: also called CHO-SΔCRD4-TNFR2; TNFR2 lacking CRD4
T3 sequence: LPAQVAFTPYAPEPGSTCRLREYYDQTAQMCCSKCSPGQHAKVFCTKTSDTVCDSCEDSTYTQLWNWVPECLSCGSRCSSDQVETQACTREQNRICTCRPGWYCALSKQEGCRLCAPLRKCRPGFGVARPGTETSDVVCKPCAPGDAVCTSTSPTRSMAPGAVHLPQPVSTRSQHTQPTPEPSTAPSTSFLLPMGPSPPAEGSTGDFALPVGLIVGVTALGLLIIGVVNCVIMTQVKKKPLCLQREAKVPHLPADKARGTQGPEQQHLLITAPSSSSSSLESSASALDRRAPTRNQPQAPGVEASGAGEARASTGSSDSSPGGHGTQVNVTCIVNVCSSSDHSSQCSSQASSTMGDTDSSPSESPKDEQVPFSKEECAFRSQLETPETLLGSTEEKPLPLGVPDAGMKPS

T4: human TNFR2 (expressed on cells) (human, UniProt P20333 23-461)
T4 construct: also called hTNFR2; human TNF Receptor 2
T4 sequence: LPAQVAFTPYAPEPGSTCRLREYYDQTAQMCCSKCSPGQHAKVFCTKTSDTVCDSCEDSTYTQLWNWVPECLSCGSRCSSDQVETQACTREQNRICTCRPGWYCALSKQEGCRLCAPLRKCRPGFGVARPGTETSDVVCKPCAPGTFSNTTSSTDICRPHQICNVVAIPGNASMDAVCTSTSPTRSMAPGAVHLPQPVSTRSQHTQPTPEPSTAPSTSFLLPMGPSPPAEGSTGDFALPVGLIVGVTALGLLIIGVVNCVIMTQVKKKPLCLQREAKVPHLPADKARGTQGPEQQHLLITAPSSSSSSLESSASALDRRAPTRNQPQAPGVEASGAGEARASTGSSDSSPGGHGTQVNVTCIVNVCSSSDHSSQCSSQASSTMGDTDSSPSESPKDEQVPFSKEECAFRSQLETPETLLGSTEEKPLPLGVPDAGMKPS

B1: BC-1F10-IgG1 (antibody, V domains shown)
VH: QVQLQQWGAGLLKPSETLSLICAVYDGSFSGDYWSWIRQPPGKGLEWIGEINHSGSTNYNPSLKSRVTISVDTSKNQFSLKLSSVTAADTAVYYCARGHWNYDYYYGMDVWGQGTTVTVSS
VL: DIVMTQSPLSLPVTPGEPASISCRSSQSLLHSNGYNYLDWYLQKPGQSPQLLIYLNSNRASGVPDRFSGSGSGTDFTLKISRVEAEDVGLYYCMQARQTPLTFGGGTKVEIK
notes: Human VH/VL joined to the human IgG1 subtype
B2: BC-1A8-IgG1 (antibody, V domains shown)
VH: QVQLQQSGPGLVKPSQTLSLTCAISGDSVSSNSAAWNWIRQSPSRGLEWLGRTYYRSKWYNDYALSVKSRITINPETSKNQFSLQLNSVTPEDTAVYYCAREDGVGGTKDYFDYWGQGTLVTVSS
VL: DIQMTQSPSSLSASVGDRVTITCQASQDIDNYLNWYQQKPGKAPKLLIYDVSNLEIGVPSRFSGSGSGTDFTFTISSLQPEDIATYYCQQYDNLPLTFGQGTRLEIK
notes: Fully human VH/VL joined to the human IgG1 subtype, kappa light chain (RenMab mice)
B3: BC-1F4-IgG1 (antibody, V domains shown)
VH: B2 VH with N32D, A34S, A64T, L65V, E76D
VL: B2 VL with D30S, V51A, I56T, S76N, I83F, Y87F, L96I
notes: as for B1
B4: BC-1C3-IgG1 (antibody, V domains shown)
VH: QVQLVESGGGVVHPGKSLRLSCAASGFTFNIYGMHWVRQAPGKGLEWVALISYDGNDKYFADSVKGRFTISRDNSKNTLYLQMNSLRAEDTAVYYCAKAVDTAVVTFFDYWGQGTLVTVSS
VL: EIVMTQSPVTLSVSPGERATLSCRASQSVSSNLAWYQQKPGQAPRLLIYSASTRATGIPARFSGSGSGTEFTLTISSLQSEDLAVYYCQQYSNWPFTFGPGTKVDIK
notes: as for B1
B5: BC-1B6-IgG1 (antibody, V domains shown)
VH: QVQLVESGGGVVQPGRSLRLSCAASGFTFSNFGMHWVRQAPGKGLEWVAVIWYEGSDKYYADSVKGRFTISRDNSKNTLYLQMNSLRAEDTAVYYCARDSSWGFLLYGMDVWGQGTTVTVSS
VL: DVVMTQSPLSLPVTLGQPASISCRSSRSLEYSDGNTYLNWFQQRPGQSPRRLIYKVSNRDSGVPDRFSGSGSGTAFTLKISGVEAEDVGVYYCMQGTHWPPTFGGGTKVEIK
notes: as for B1

Biological target: T1, His-tagged human TNFR1 (Human …)
Assay: SPR Biacore 8K, antibody captured on Protein A chip
Description: The binding affinity of the anti-TNFR2 antibodies to human TNFR2 and TNFR1 (Tumor necrosis factor receptor 1) were measured using surface plasmon resonance (SPR) using Biacore (Biacore, INC, Piscataway NJ) 8K biosensor equipped with pre-immobilized Protein A sensor chips.
Purified anti-TNFR2 antibodies were diluted to 1 μg/mL and then injected into the Biacore 8K biosensor at 10 μL/min for about 50 seconds to achieve a desired protein density (e.g., about 50 response units (RU)). […] Dissociation was monitored for 600 seconds. The chip was regenerated after the last injection of each titration with Glycine (pH 2.0, 30 μL/min for 30 seconds).

B1: no binding (tested: up to 200 nM analyte).
B2: no binding (tested: up to 200 nM analyte).
B3: no binding (tested: up to 200 nM analyte).
B4: no binding (tested: up to 200 nM analyte).
B5: no binding (tested: up to 200 nM analyte).

Biological target: T2, ΔCRD1-TNFR2 protein (with CRD1 …)
Assay: FACS on CHO-S cells with ΔCRD1-TNFR2, AF647 anti-human IgG Fc secondary
From the text: (§1) TNFR2 has four cysteine rich domains (CRD). In another experiment, FACS was used to detect the binding of anti-hTNFR2 antibodies to TNFR2 proteins with different structural domains. Secondary antibody (Alexa Fluor® 647 AffiniPure F(ab′) 2 Fragment Goat Anti-Human IgG, Fcγ fragment specific, Jackson ImmunoResearch Laboratories, Inc., Cat #: 151524) was used. The fluorescence-labeled secondary antibody can attach to the Fc region of the anti-hTNFR2 antibodies so that the anti-hTNFR2 antibodies that are bound to the ΔCRD cells can be detected by FACS. Specifically, ΔCRD1-TNFR2 protein (with CRD1 deleteion), ΔCRD2-TNFR2 protein (with CRD2 deleteion), ΔCRD3-TNFR2 protein (with CRD3 deleteion) or ΔCRD4-TNFR2 protein (with CRD4 deleteion) were expressed in CHO-S cells respectively, and then the binding between the cells and different anti-hTNFR2 antibodies was detected.

Going from B1 to B2, the “positive rate of binding (% of cells)” value rises from 55.3% to 64.6%.

Compared with B3, B4 is higher in “positive rate of binding (% of cells)” value: 53.1% for the first, 72.6% for the second.

Biological target: T3, ΔCRD4-TNFR2 protein (with CRD4 …)
Assay: FACS on CHO-S cells with ΔCRD4-TNFR2, AF647 anti-human IgG Fc secondary
From the text: as §1

Compared with B1, B2 is lower in “positive rate of binding (% of cells)” value: 38.3% for the first, 29.4% for the second.

Compared with B3, B4 is lower in “positive rate of binding (% of cells)” value: 21.3% for the first, 1.85% for the second.

Biological target: T4, human TNFR2 (expressed on cells)
Assay: flow cytometry competition, CHO cells with human TNFR2, antibody 0.039 µg/mL, Biotin-hTNFα 0.5 µg/mL
Description: (§2) 30 μl of Biotin-hTNFα (Acro Biosystems, Cat #: TNA-H82E1) was added to each well (with a final concentration of 0.5 μg/mL in each well). The cells with Biotin-hTNFα and the antibodies were incubated at 4° C. for 30 minutes.
(§3) The signals for AF647 and PE were determined by flow cytometry (Thermo Attune NX).

First: B1
Second: B2
The “percentage of tested cells that had Streptavidin signals” value (from here on “percentage”) of the first is lower: 59% for the first, 62.8% for the second.

Going from B3 to B4, the “percentage” value falls from 84.6% to 77%.

B5 was tested, and the “percentage” value was 78.9%.

Biological target: T4, human TNFR2 (expressed on cells)
Assay: flow cytometry competition, CHO cells with human TNFR2, antibody 0.625 µg/mL, Biotin-hTNFα 0.5 µg/mL
Description: as §2, §3

First: B1
Second: B2
The “percentage” value of the first is higher: 60.2% for the first, 58.6% for the second.

Compared with B3, B4 is higher in “percentage” value: 61.9% for the first, 77.3% for the second.

In the case of B5, the “percentage” value is reported as 80.4%.
